Reference: IntAct's records for PubMed 21979047

B1: Complement factor H (Homo sapiens), P08603 (parent)
chain: MRLLAKIICLMLWAICVAEDCNELPPRRNTEILTGSWSDQTYPEGTQAIYKCRPGYRSLGNVIMVCRKGEWVALNPLRKCQKRPCGHPGDTPFGTFTLTGGNVFEYGVKAVYTCNEGYQLLGEINYRECDTDGWTNDIPICEVVKCLPVTAPENGKIVSSAMEPDREYHFGQAVRFVCNSGYKIEGDEEMHCSDDGFWSKEKPKCVEISCKSPDVINGSPISQKIIYKENERFQYKCNMGYEYSERGDAVCTESGWRPLPSCEEKSCDNPYIPNGDYSPLRIKHRTGDEITYQCRNGFYPATRGNTAKCTSTGWIPAPRCTLKPCDYPDIKHGGLYHENMRRPYFPVAVGKYYSYYCDEHFETPSGSYWDHIHCTQDGWSPAVPCLRKCYFPYLENGYNQNYGRKFVQGKSIDVACHPGYALPKAQTTVTCMENGWSPTPRCIRVKTCSKSSIDIENGFISESQYTYALKEKAKYQCKLGYVTADGETSGSITCGKDGWSAQPTCIKSCDIPVFMNARTKNDFTWFKLNDTLDYECHDGYESNTGSTTGSIVCGYNGWSDLPICYERECELPKIDVHLVPDRKKDQYKVGEVLKFSCKPGFTIVGPNSVQCYHFGLSPDLPICKEQVQSCGPPPELLNGNVKEKTKEEYGHSEVVEYYCNPRFLMKGPNKIQCVDGEWTTLPVCIVEESTCGDIPELEHGWAQLSSPPYYYGDSVEFNCSESFTMIGHRSITCIHGVWTQLPQCVAIDKLKKCKSSNLIILEEHLKNKKEFDHNSNIRYRCRGKEGWIHTVCINGRWDPEVNCSMAQIQLCPPPPQIPNSHNMTTTLNYRDGEKVSVLCQENYLIQEGEEITCKDGRWQSIPLCVEKIPCSQPPQIEHGTINSSRSSQESYAHGTKLSYTCEGGFRISEENETTCYMGKWSSPPQCEGLPCKSPPEISHGVVAHMSDSYQYGEEVTYKCFEGFGIDGPAIAKCLGEKWSHPPSCIKTDCLSLPSFENAIPMGEKKDVYKAGEQVTYTCATYYKMDGASNVTCINSRWTGRPTCRDTSCVNPPTVQNAYIVSRQMSKYPSGERVRYQCRSPYEMFGDEEVMCLNGNWTEPPQCKDSTGKCGPPPPIDNGDITSFPLSVYAPASSVEYQCQNLYQLEGNKRITCRNGQWSEPPKCLHPCVISREIMENYNIALRWTAKQKLYSRTGESVEFVCKRGYRLSSRSHTLRTTCWDGKLEYPTCAKR

Variants of: B1
Conditions: with albu_bovin ALB

| Variant | effect of a mutation on the interaction |
| --- | --- |
| Y402H | decreasing interaction strength |
